Data: US20260000781A1 (CIDARA THERAPEUTICS, published 2026)

B1: Mupadolimab (antibody, V domains shown)
VH: QVQLVQSGAEVEKPGASVKVSCKASGYTFTSYWITWVRQAPGQGLEWMGDIYPGSGNTNYNEKFKTRVTITADKSTSTAYMELSSLRSEDTAVYYCAKEGGLTTEDYALDYWGQGTLVTVSS
VL: EIVLTQSPATLSLSPGERATLSCRASKNVSTSGYSYMHWYQQKPGQAPRLLIYLASNLESGIPPRFSGSGYGTDFTLTINNIESEDAAYYFCQHSRELPFTFGQGTKVEIK
B2: Oleclumab (antibody, V domains shown)
VH: EVQLLESGGGLVQPGGSLRLSCAASGFTFSSYAYSWVRQAPGKGLEWVSAISGSGGRTYYADSVKGRFTISRDNSKNTLYLQMNSLRAEDTAVYYCARLGYGRVDEWGRGTLVTVSS
VL: QSVLTQPPSASGTPGQRVTISCSGSLSNIGRNPVNWYQQLPGTAPKLLIYLDNLRLSGVPDRFSGSKSGTSASLAISGLQSEDEADYYCATWDDSHPGWTFGGGTKLTVL

Key:
[1] = target: T1, mouse CD73 expressed on cells (mouse, UniProt Q61503 29-551); test: cell-based or functional assay
T1 sequence (looked up): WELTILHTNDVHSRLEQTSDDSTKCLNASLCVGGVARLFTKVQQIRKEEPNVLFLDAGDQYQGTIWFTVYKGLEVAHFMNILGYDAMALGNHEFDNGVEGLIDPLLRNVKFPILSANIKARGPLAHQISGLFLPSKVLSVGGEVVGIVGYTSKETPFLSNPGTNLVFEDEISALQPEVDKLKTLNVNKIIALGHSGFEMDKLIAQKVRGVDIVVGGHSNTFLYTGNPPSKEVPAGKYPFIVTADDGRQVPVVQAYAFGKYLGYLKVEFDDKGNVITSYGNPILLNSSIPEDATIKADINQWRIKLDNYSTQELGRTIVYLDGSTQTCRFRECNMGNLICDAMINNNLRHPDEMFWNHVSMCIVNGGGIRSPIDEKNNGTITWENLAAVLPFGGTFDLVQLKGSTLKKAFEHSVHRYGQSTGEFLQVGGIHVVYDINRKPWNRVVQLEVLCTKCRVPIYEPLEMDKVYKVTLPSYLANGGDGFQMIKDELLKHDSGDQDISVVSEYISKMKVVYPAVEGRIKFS

[2] = target: T1, mouse CD73 expressed on cells; test: cell-based or functional assay; remark: listed apart in the source
[3] = target: T2, Enzymatically active His-tagged human CD73/NT5E protein (human, UniProt P21589 27-547); test: SPR (Biacore 8K), His-tagged human CD73 captured by anti-His antibody, mAb as analyte
T2 construct: Bought protein; also called human CD73/NT5E protein, His-tag (Acro Biosystems cat CD3-H52H7); not shown: His-tag
T2 sequence (looked up): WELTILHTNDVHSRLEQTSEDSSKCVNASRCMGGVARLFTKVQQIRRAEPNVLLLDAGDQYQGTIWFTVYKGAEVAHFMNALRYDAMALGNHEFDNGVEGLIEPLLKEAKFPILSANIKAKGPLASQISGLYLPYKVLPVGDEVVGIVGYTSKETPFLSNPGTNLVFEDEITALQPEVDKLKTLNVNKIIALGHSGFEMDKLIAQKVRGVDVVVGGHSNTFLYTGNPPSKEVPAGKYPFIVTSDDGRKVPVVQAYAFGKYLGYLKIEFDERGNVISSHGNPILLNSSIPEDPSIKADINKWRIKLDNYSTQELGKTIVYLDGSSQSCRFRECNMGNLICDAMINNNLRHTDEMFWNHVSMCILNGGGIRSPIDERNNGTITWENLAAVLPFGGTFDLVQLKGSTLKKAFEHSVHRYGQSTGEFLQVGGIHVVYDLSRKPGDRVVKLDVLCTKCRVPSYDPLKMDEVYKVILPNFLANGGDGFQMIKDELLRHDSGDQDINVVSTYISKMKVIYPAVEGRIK

[4] = target: T3, human CD73 expressed on cells (human, UniProt P21589 27-549); test: cell-based or functional assay
T3 sequence (looked up): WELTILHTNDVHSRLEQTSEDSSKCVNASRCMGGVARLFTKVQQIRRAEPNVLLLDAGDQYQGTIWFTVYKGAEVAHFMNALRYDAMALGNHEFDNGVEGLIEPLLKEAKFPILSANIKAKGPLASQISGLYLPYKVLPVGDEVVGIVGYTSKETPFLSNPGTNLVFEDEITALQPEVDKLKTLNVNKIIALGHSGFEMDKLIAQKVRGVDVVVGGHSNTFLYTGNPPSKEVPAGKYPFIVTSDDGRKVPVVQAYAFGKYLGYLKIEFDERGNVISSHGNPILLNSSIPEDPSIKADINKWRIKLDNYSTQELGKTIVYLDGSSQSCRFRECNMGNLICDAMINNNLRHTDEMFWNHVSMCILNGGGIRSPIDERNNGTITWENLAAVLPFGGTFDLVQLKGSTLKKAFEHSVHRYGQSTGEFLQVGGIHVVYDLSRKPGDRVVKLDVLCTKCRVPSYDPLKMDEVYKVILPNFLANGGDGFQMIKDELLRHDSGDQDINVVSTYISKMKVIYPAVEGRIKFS

[5] = target: T3, human CD73 expressed on cells; test: cell-based or functional assay; remark: listed apart in the source
[6] = target: T3, human CD73 expressed on cells; test: cell-based or functional assay; remark: listed apart in the source
[7] = target: T3, human CD73 expressed on cells; test: cell-based or functional assay; remark: listed apart in the source
[8] = target: T3, human CD73 expressed on cells; test: cell-based or functional assay; remark: listed apart in the source
[9] = target: T3, human CD73 expressed on cells; test: cell-based or functional assay; remark: listed apart in the source
[10] = target: T3, human CD73 expressed on cells; test: cell-based or functional assay; remark: listed apart in the source
[11] = target: T3, human CD73 expressed on cells; test: cell-based or functional assay; remark: listed apart in the source
[12] = target: T3, human CD73 expressed on cells; test: cell-based or functional assay; remark: listed apart in the source

Binder | CD73 inhibition, mouse EMT6 cells, 3 h IC50 [nM] [1] [nM] | CD73 inhibition, mouse EMT6 cells, 24 h IC50 [nM] [1] [nM] | CD73 inhibition, mouse 4T1 cells, 3 h IC50 [nM] [2] [nM] | CD73 inhibition, mouse 4T1 cells, 24 h IC50 [nM] [2] [nM] | Kd [3] [nM] | Cell-based CD73 inhibition IC50 (nM), MDA-MB-231 cells [4] [nM] | PBMC activation (CD25+), 30 µM AMP EC50 [nM] [5] [nM] | PBMC activation, CD8+CD25+ EC50 [nM] [6] [nM] | PBMC activation, CD8+granzyme B+ EC50 [nM] [6] [nM] | cell-based CD73 enzyme inhibition IC50 (MDA-MB-231 cells) [7] [nM] | inhibition of adenosine production (AMP conversion by CellTiter-Glo), human PBMCs, EC50 [nM] [8] [nM] | CD73 inhibition, human PBMCs, 3 h median IC50 [nM] [9] [nM] | CD73 inhibition, human PBMCs, 24 h median IC50 [nM] [9] [nM] | PBMC activation, CD4+CD25+ EC50 [nM] (median, n = 3) [10] | PBMC activation, CD8+CD25+ EC50 [nM] (median, n = 3) [10] | PBMC activation, CD8+Granzyme B+ EC50 [nM] (median, n = 3) [10] | CD73 inhibition, human PBMCs, 3 h IC50 [nM] [11] [nM] | CD73 inhibition, human PBMCs, 24 h IC50 [nM] [11] [nM] | Cell internalization EC50 (nM), Fab-ZAP saporin assay, MDA-MB-231 [12] [nM]
B1 | > 100 | > 100 | > 100 | > 100 | 123 |  |  |  |  |  |  |  |  |  |  |  |  |  | 
B2 | 5.68 | > 100 | > 100 | > 100 | 0.527 | 0.67 | > 1000 | > 1000 | > 1000 | 0.11 | 288 | 7.26 | 89.4 | > 1000 | > 1000 | > 1000 | 0.56 | > 100 | 0.02
